Source: US20240182582A1 (Janssen / Centocor, published 2024)

Legend:
GPRC5d = GPRC5d (UniProt Q9NZD1 1-345, limits assumed); test: cell-based or functional assay
BCMA = target: T1, BCMA (UniProt Q02223 1-184, limits assumed); test: cell-based or functional assay
T1 sequence (looked up): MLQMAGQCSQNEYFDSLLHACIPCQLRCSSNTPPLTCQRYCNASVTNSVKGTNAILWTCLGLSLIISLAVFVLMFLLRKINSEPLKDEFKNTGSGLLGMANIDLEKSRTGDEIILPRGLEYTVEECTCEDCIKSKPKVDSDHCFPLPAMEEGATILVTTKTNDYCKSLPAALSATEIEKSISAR

[1] = target: NKp46 on NKL cells / NK cells (human, UniProt O76036 22-304); test: cell-based or functional assay
Cyno NKG2d (NKGW2.001) = target: T2, Cyno NKG2d (NKGW2.001) (cynomolgus monkey, UniProt P61252 80-216, limits assumed); test: surface plasmon resonance
T2 sequence (looked up): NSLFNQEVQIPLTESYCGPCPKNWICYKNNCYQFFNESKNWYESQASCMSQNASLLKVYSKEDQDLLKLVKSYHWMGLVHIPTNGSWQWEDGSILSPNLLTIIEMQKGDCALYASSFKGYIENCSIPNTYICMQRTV

[2] = target: T3, NKGW1 (human NKG2d80-216 extracellular region with N-term hexahistidine tag) (human, UniProt P26718 80-216); test: surface plasmon resonance
T3 construct: also called human NKG2d (NKGW1)
T3 sequence: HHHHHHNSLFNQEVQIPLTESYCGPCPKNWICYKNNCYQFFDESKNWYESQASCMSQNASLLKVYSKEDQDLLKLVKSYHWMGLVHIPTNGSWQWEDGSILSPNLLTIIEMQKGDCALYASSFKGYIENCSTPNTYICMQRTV

GPRC5d, sequence (Q9NZD1 whole entry): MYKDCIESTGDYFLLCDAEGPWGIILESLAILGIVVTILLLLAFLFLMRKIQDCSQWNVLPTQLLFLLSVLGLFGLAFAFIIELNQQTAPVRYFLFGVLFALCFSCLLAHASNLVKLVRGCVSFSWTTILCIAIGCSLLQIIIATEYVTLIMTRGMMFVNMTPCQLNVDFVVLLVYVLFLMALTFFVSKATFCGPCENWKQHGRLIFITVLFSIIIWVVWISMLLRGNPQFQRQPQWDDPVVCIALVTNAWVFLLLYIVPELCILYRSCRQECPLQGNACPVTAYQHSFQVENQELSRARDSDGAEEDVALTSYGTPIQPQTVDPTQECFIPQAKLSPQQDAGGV
NKp46 on NKL cells / NK cells, sequence (O76036 22-304): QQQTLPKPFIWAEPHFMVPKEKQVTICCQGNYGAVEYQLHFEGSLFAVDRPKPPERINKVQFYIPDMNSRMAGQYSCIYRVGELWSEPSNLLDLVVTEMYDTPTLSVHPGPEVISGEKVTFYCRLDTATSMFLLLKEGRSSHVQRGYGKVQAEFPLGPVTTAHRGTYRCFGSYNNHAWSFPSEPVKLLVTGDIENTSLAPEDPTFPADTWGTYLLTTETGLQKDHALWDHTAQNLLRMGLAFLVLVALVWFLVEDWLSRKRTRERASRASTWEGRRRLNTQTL

B1: NG2GB19 (bispecific antibody, human IgG1, lambda)
heavy: not shown
light: SYVLTQPPSVSVAPGQTARITCGGNNIGSKSVHWYQQKAGQAPVLVVYDDSDRPSGIPERFSGSNSGNTATLTISRVEAGDEADYYCQVWDGRSDHVVFGGGTKLTVLGQPKAAPSVTLFPPSSEELQANKATLVCLISDFYPGAVTVAWKADSSPVKAGVETTTPSKQSNNKYAASSYLSLTPEQWKSHRSYSCQVTHEGSTVEKTVAPTECS
GPRC5d
  IC50 for BsAb cytotoxicity, H929/GFP target cells with PBMC effectors: 0.0199 nM

B2: NG2BB10 (bispecific antibody, human IgG1, lambda)
heavy: EVQLLESGGGLVQPGGSLRLSCAASGFTFSIYAMTWVRQAPGKGLEWVSIISGSGDHTFYADSVKGRFTISRDNSRNTLYLQMDSLRAEDTAVYYCAKEGKWVQLSHFANWGQGTLVTVSSASTKGPSVFPLAPSSKSTSGGTAALGCLVKDYFPEPVTVSWNSGALTSGVHTFPAVLQSSGLYSLSSVVTVPSSSLGTQTYICNVNHKPSNTKVDKKVEPKSCDKTHTCPPCPAPELLGGPSVFLFPPKPKDTLMISRTPEVTCVVVDVSHEDPEVKFNWYVDGVEVHNAKTKPREEQYNSTYRVVSVLTVLHQDWLNGKEYKCKVSNKALPAPIEKTISKAKGQPREPQVYVYPPSREEMTKNQVSLTCLVKGFYPSDIAVEWESNGQPENNYKTTPPVLDSDGSFALVSKLTVDKSRWQQGNVFSCSVMHEALHNHYTQKSLSLSPGK
light: SYVLTQPPSVSVAPGQTARITCGGNNIGSKSVHWYQQKAGQAPVLVVYDDSDRPSGIPERFSGSNSGNTATLTISRVEAGDEADYYCQVWDGRSDHVVFGGGTKLTVLGQPKAAPSVTLFPPSSEELQANKATLVCLISDFYPGAVTVAWKADSSPVKAGVETTTPSKQSNNKYAASSYLSLTPEQWKSHRSYSCQVTHEGSTVEKTVAPTECS
chain: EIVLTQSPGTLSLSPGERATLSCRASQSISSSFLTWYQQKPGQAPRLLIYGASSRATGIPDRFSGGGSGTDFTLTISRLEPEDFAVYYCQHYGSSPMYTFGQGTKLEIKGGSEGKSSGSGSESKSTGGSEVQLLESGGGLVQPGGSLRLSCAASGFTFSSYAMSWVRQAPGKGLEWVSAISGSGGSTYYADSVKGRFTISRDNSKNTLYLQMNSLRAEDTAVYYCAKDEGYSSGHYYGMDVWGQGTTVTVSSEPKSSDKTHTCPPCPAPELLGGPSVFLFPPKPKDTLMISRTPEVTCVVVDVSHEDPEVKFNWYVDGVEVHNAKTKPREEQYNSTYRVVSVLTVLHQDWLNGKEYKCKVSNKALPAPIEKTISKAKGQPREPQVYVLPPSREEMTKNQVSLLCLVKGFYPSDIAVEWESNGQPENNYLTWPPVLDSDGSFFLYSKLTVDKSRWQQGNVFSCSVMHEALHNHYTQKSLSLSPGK
BCMA
  IC50 for BsAb cytotoxicity, H929/GFP target cells with PBMC effectors: 0.0209 nM

B3: NG2GB23 (bispecific antibody, human IgG1, lambda)
heavy: EVQLLESGGGLVQPGGSLRLSCAASGFTFSIYAMTWVRQAPGKGLEWVSIISGSGDHTFYADSVKGRFTISRDNSRNTLYLQMDSLRAEDTAVYYCAKEGKWVQLSHFANWGQGTLVTVSSASTKGPSVFPLAPSSKSTSGGTAALGCLVKDYFPEPVTVSWNSGALTSGVHTFPAVLQSSGLYSLSSVVTVPSSSLGTQTYICNVNHKPSNTKVDKKVEPKSCDKTHTCPPCPAPELLGGPSVFLFPPKPKDTLMISRTPEVTCVVVDVSHEDPEVKFNWYVDGVEVHNAKTKPREEQYNSTYRVVSVLTVLHQDWLNGKEYKCKVSNKALPAPIEKTISKAKGQPREPQVYVYPPSREEMTKNQVSLTCLVKGFYPSDIAVEWESNGQPENNYKTTPPVLDSDGSFALVSKLTVDKSRWQQGNVFSCSVMHEALHNHYTQKSLSLSPGK
light: SYVLTQPPSVSVAPGQTARITCGGNNIGSKSVHWYQQKAGQAPVLVVYDDSDRPSGIPERFSGSNSGNTATLTISRVEAGDEADYYCQVWDGRSDHVVFGGGTKLTVLGQPKAAPSVTLFPPSSEELQANKATLVCLISDFYPGAVTVAWKADSSPVKAGVETTTPSKQSNNKYAASSYLSLTPEQWKSHRSYSCQVTHEGSTVEKTVAPTECS
chain: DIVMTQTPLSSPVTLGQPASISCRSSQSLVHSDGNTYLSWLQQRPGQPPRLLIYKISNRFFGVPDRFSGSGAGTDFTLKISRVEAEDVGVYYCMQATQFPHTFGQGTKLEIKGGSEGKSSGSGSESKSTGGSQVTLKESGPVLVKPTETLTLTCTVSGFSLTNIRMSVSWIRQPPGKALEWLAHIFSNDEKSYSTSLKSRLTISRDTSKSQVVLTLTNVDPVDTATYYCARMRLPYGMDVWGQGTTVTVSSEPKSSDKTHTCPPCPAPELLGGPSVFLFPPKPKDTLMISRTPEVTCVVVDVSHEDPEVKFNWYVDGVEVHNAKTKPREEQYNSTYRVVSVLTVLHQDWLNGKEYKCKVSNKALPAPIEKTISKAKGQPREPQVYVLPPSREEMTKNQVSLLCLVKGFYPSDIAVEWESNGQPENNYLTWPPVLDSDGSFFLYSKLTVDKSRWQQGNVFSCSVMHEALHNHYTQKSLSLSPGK
GPRC5d
  IC50 for BsAb cytotoxicity, H929/GFP target cells with PBMC effectors: 0.00337 nM

B4: NG2BB9 (bispecific antibody, human IgG1, kappa)
heavy: EVQLVQSGAEVKKPGESLKISCKGSGYSFTSYWIGWVRQMPGKGLEWMGIIYPGDSYTRYSPSFQGQVTISADKSISTAYLQWSSLKASDTAMYYCARGGVSASGNYRALDYWGQGTLVTVSSASTKGPSVFPLAPSSKSTSGGTAALGCLVKDYFPEPVTVSWNSGALTSGVHTFPAVLQSSGLYSLSSVVTVPSSSLGTQTYICNVNHKPSNTKVDKKVEPKSCDKTHTCPPCPAPELLGGPSVFLFPPKPKDTLMISRTPEVTCVVVDVSHEDPEVKFNWYVDGVEVHNAKTKPREEQYNSTYRVVSVLTVLHQDWLNGKEYKCKVSNKALPAPIEKTISKAKGQPREPQVYVYPPSREEMTKNQVSLTCLVKGFYPSDIAVEWESNGQPENNYKTTPPVLDSDGSFALVSKLTVDKSRWQQGNVFSCSVMHEALHNHYTQKSLSLSPGK
light: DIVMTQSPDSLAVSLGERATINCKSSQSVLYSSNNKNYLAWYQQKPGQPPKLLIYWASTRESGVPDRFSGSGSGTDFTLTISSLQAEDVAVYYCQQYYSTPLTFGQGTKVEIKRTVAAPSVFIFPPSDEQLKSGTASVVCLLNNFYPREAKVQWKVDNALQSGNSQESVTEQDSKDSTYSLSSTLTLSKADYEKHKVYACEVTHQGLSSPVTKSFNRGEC
chain: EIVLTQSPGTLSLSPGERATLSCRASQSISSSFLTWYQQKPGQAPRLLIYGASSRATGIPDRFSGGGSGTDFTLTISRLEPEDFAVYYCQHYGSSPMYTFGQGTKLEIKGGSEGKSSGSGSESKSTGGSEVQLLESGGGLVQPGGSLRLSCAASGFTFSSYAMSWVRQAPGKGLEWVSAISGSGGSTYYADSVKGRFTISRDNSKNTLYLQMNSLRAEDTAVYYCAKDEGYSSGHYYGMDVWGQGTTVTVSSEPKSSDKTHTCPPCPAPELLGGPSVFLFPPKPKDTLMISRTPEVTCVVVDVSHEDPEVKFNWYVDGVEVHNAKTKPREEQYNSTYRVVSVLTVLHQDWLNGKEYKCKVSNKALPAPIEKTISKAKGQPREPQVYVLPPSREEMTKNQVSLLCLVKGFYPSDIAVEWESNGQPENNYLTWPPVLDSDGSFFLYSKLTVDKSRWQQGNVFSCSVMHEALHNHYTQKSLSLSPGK
BCMA
  IC50 for BsAb cytotoxicity, H929/GFP target cells with PBMC effectors: 0.00722 nM

B5: NG2GB24 (bispecific antibody, human IgG1, kappa)
heavy: EVQLVQSGAEVKKPGESLKISCKGSGYSFTSYWIGWVRQMPGKGLEWMGIIYPGDSYTRYSPSFQGQVTISADKSISTAYLQWSSLKASDTAMYYCARGGVSASGNYRALDYWGQGTLVTVSSASTKGPSVFPLAPSSKSTSGGTAALGCLVKDYFPEPVTVSWNSGALTSGVHTFPAVLQSSGLYSLSSVVTVPSSSLGTQTYICNVNHKPSNTKVDKKVEPKSCDKTHTCPPCPAPELLGGPSVFLFPPKPKDTLMISRTPEVTCVVVDVSHEDPEVKFNWYVDGVEVHNAKTKPREEQYNSTYRVVSVLTVLHQDWLNGKEYKCKVSNKALPAPIEKTISKAKGQPREPQVYVYPPSREEMTKNQVSLTCLVKGFYPSDIAVEWESNGQPENNYKTTPPVLDSDGSFALVSKLTVDKSRWQQGNVFSCSVMHEALHNHYTQKSLSLSPGK
light: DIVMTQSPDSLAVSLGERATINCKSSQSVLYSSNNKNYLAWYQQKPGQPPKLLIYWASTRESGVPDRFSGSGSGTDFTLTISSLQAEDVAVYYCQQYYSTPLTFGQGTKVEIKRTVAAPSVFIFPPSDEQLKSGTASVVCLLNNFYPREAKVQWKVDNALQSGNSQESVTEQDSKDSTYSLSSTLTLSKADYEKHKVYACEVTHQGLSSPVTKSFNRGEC
chain: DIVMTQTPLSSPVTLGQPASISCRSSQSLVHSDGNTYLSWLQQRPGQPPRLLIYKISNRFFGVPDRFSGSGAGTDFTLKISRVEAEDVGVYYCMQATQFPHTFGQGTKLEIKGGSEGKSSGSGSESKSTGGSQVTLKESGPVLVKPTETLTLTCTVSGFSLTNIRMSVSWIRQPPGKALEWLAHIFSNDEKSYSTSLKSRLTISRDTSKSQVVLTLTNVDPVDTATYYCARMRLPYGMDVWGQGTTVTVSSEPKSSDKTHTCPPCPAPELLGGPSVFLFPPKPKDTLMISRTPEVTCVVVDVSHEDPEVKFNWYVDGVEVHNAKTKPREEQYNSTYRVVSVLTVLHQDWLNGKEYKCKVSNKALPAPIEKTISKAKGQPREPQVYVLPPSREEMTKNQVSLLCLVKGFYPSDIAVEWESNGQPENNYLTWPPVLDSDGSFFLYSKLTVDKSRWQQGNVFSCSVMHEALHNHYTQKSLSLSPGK
GPRC5d
  IC50 for BsAb cytotoxicity, H929/GFP target cells with PBMC effectors: 0.0144 nM

B6: N46BB4 (bispecific antibody, human IgG1, kappa)
heavy: QLQLQESGPGPVRPSETLSLTCTVSGDSIRSSSYYWGWIRQPPGKGLDWIGSIYYTGSTYYNPSLMSRVTISVDTSKNQFSLKLSSVTAADTAVYYCASPGYSSGWSIDYWGQGTLVTVSSASTKGPSVFPLAPSSKSTSGGTAALGCLVKDYFPEPVTVSWNSGALTSGVHTFPAVLQSSGLYSLSSVVTVPSSSLGTQTYICNVNHKPSNTKVDKKVEPKSCDKTHTCPPCPAPELLGGPSVFLFPPKPKDTLMISRTPEVTCVVVDVSHEDPEVKFNWYVDGVEVHNAKTKPREEQYNSTYRVVSVLTVLHQDWLNGKEYKCKVSNKALPAPIEKTISKAKGQPREPQVYVYPPSREEMTKNQVSLTCLVKGFYPSDIAVEWESNGQPENNYKTTPPVLDSDGSFALVSKLTVDKSRWQQGNVFSCSVMHEALHNHYTQKSLSLSPGK
light: DIQLTQSPSFLSASVGDRVTITCRASQGISSYLAWYQQKPGKAPKLLIYVASTLQSGVPSRFSGSGSGTEFTLTISSLQPEDFATYYCQQLNSYPRMTFGGGTKVEIKRTVAAPSVFIFPPSDEQLKSGTASVVCLLNNFYPREAKVQWKVDNALQSGNSQESVTEQDSKDSTYSLSSTLTLSKADYEKHKVYACEVTHQGLSSPVTKSFNRGEC
chain: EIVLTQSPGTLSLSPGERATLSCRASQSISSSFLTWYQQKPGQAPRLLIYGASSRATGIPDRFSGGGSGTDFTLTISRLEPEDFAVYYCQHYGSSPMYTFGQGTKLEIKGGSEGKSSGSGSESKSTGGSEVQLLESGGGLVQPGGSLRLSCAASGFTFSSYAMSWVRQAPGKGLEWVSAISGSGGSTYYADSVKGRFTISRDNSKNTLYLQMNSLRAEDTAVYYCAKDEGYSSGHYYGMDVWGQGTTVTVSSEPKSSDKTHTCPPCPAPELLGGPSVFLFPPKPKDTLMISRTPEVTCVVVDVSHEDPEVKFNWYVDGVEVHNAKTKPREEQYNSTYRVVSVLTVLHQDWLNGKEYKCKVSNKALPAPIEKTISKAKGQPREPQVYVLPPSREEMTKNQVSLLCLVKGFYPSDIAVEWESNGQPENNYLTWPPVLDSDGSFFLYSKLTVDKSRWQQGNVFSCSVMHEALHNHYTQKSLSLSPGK
BCMA
  IC50 for BsAb cytotoxicity, H929/GFP target cells with PBMC effectors: 0.00153 nM

B7: N46BB14 (bispecific antibody, human IgG1, kappa, L234A L235A)
heavy: QLQLQESGPGPVRPSETLSLTCTVSGDSIRSSSYYWGWIRQPPGKGLDWIGSIYYTGSTYYNPSLMSRVTISVDTSKNQFSLKLSSVTAADTAVYYCASPGYSSGWSIDYWGQGTLVTVSSASTKGPSVFPLAPSSKSTSGGTAALGCLVKDYFPEPVTVSWNSGALTSGVHTFPAVLQSSGLYSLSSVVTVPSSSLGTQTYICNVNHKPSNTKVDKKVEPKSCDKTHTCPPCPAPEAAGGPSVFLFPPKPKDTLMISRTPEVTCVVVSVSHEDPEVKFNWYVDGVEVHNAKTKPREEQYNSTYRVVSVLTVLHQDWLNGKEYKCKVSNKALPAPIEKTISKAKGQPREPQVYTLPPSREEMTKNQVSLWCLVKGFYPSDIAVEWESNGQPENNYKTTPPVLDSDGSFFLYSKLTVDKSRWQQGNVFSCSVMHEALHNRFTQKSLSLSPGK
light: DIQLTQSPSFLSASVGDRVTITCRASQGISSYLAWYQQKPGKAPKLLIYVASTLQSGVPSRFSGSGSGTEFTLTISSLQPEDFATYYCQQLNSYPRMTFGGGTKVEIKRTVAAPSVFIFPPSDEQLKSGTASVVCLLNNFYPREAKVQWKVDNALQSGNSQESVTEQDSKDSTYSLSSTLTLSKADYEKHKVYACEVTHQGLSSPVTKSFNRGEC
chain: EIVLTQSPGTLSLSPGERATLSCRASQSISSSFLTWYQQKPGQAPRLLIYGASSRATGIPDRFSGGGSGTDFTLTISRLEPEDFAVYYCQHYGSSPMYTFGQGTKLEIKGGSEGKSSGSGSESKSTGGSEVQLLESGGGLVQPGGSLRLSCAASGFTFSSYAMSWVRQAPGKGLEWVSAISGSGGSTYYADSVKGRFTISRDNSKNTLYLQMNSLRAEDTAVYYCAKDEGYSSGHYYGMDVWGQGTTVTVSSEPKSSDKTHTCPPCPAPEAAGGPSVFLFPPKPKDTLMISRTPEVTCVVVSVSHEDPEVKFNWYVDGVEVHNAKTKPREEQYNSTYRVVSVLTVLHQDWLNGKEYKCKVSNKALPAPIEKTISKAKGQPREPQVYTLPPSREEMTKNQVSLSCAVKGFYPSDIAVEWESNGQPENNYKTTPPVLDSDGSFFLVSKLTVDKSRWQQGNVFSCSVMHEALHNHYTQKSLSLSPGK
[1]
  EC50 of cytotoxicity (hypoxia study, PBMC on MM1R/GFP cells, 48-hour endpoint): ~1.19 nM

B8: N46BB10 (bispecific antibody, human IgG1, kappa)
heavy: QLQLQESGPGPVRPSETLSLTCTVSGDSIRSSSYYWGWIRQPPGKGLDWIGSIYYTGSTYYNPSLMSRVTISVDTSKNQFSLKLSSVTAADTAVYYCASPGYSSGWSIDYWGQGTLVTVSSASTKGPSVFPLAPSSKSTSGGTAALGCLVKDYFPEPVTVSWNSGALTSGVHTFPAVLQSSGLYSLSSVVTVPSSSLGTQTYICNVNHKPSNTKVDKKVEPKSCDKTHTCPPCPAPELLGGPSVFLFPPKPKDTLMISRTPEVTCVVVDVSHEDPEVKFNWYVDGVEVHNAKTKPREEQYNSTYRVVSVLTVLHQDWLNGKEYKCKVSNKALPAPIEKTISKAKGQPREPQVYTLPPSREEMTKNQVSLWCLVKGFYPSDIAVEWESNGQPENNYKTTPPVLDSDGSFFLYSKLTVDKSRWQQGNVFSCSVMHEALHNRFTQKSLSLSPGK
light: DIQLTQSPSFLSASVGDRVTITCRASQGISSYLAWYQQKPGKAPKLLIYVASTLQSGVPSRFSGSGSGTEFTLTISSLQPEDFATYYCQQLNSYPRMTFGGGTKVEIKRTVAAPSVFIFPPSDEQLKSGTASVVCLLNNFYPREAKVQWKVDNALQSGNSQESVTEQDSKDSTYSLSSTLTLSKADYEKHKVYACEVTHQGLSSPVTKSFNRGEC
chain: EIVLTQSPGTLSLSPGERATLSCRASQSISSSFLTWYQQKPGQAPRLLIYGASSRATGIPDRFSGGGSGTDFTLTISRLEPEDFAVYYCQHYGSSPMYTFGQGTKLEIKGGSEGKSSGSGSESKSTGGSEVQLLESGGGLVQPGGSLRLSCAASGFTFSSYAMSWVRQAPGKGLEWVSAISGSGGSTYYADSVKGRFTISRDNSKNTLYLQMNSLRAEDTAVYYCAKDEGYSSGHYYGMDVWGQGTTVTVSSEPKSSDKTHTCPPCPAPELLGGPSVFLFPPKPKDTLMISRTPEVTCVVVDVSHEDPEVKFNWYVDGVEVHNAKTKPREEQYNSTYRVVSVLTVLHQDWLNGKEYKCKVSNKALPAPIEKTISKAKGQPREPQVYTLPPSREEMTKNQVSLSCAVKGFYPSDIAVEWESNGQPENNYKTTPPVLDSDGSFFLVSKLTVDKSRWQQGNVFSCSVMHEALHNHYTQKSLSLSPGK
[1]
  EC50 of cytotoxicity (hypoxia study, PBMC on MM1R/GFP cells): ~0.07 nM

B9: NKGB125 (antibody, human IgG1, V domains shown)
VH: EVQLLESGGGLVQPGGSLRLSCAASGFTFSIYAMTWVRQAPGKGLEWVSIISGSGDHTFYADSVKGRFTISRDNSRNTLYLQMDSLRAEDTAVYYCAKEGKWVQLSHFANWGQGTLVTVSS
VL: SYVLTQPPSVSVAPGQTARITCGGNNIGSKSVHWYQQKAGQAPVLVVYDDSDRPSGIPERFSGSNSGNTATLTISRVEAGDEADYYCQVWDGRSDHVVFGGGTKLTVL
notes: OmniRat hybridoma clone; v-regions cloned into human IgG1 sigma and lambda constant regions; also called NKGB125.002; NKGY1_045_F04
Cyno NKG2d (NKGW2.001)
  Kd: 0.1 nM
  koff: 5.84e-05 s⁻¹
  kon: 571000 M⁻¹ s⁻¹
[2]
  Kd: 0.05 nM
  koff: 3.85e-05 s⁻¹
  kon: 751000 M⁻¹ s⁻¹

B10: NKGB83 (antibody, human IgG1, V domains shown)
VH: EVQLVQSGAEVKKPGESLKISCKGSGYSFTSYWIGWVRQMPGKGLEWMGIIYPGDSYTRYSPSFQGQVTISADKSISTAYLQWSSLKASDTAMYYCARGGVSASGNYRALDYWGQGTLVTVSS
VL: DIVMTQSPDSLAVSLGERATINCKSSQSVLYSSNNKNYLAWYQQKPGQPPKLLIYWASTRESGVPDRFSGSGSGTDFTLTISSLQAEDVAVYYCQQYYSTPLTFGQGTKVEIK
notes: phage display panel; v-regions cloned into silent human IgG1/kappa constant regions; also called NKGB83.002
Cyno NKG2d (NKGW2.001)
  Kd: 27.4 nM
  koff: 0.00212 s⁻¹
  kon: 77600 M⁻¹ s⁻¹
[2]
  Kd: 8.2 nM
  koff: 0.000941 s⁻¹
  kon: 114000 M⁻¹ s⁻¹
